Source: US20200392528A1, “IMPROVED PLANT EPSP SYNTHASES AND METHODS OF USE” (PIONEER HI-BRED INTERNATIONAL, INC., priority 2017, published 2020)
Where two headings read alike, the source gives them in different places.

What was measured:
[1] = molecular target: EPSPS from Agrobacterium sp. strain CP4 (Agrobacterium sp., UniProt Q9R4E4); test: kgly: enzyme turnover at 30 μM PEP and S3P, 1 mM glyphosate, CP4 EPSPS; format: biochemical
Text: A customized parameter for predicting performance in the treated plant that would be a more accurate representation than kcat/Km*Ki. […] However, kcat/Km*Ki may be inadequate for predicting the reaction velocity under the conditions of the application (plants sprayed with glyphosate) because it may neglect concentrations of substrate and inhibitor, factors that are not intrinsic to the enzyme, but on which the reaction rate depends. Therefore, libraries derived from C1 on in FIG. 2 were evaluated with a single rate measurement designed to take all factors in the rate equation for competitive inhibition into account. […] Glyphosate was included at 1 mM, a concentration attainable in tissues, especially meristems, receiving metabolite flow from treated leaves. The pH (7.0), ionic strength (100 mM KCl) and co-solvent concentration (5% ethylene glycol) were also intended to mimic in vivo conditions. The unit for the parameter is reaction rate (μM·min^−1) per enzyme concentration (μM), or min^−1, describing the enzyme turnover under application conditions, which we abbreviate as “kgly”. Although individual kinetic parameters for key variants were obtained, kgly was adopted a parameter needed both for medium throughput screening and for ultimate evaluation of fitness.

[2] = molecular target: CP4 EPSPS (Agrobacterium sp., UniProt Q9R4E4); test: substrate saturation kinetic analysis (kcat, Km, Ki); format: biochemical, Agrobacterium sp. strain CP4
Experimental: EPSPS activity was determined by quantifying the phosphate generated from the EPSPS reaction. Release of inorganic phosphate was coupled to its reaction with 2-amino-6-mercapto-7-methylpurine ribonucleoside (MESG), catalyzed by purine nucleoside phosphorylase, according to previously described protocols. To determine the kcat gly, enzyme preparations were normalized to 0.1 mg/ml and four- to six-microliter aliquots of normalized enzyme were added to the wells of a low UV-absorbing 96-well assay plate (Greiner UV-Star). Reactions were started with the addition of 2×147 μl of reaction mixture containing 25 mM Hepes, pH 7.0, 100 mM KCl, 5% ethylene glycol, 30 μM each of PEP and S3P, 0.15 mM MESG, 1.5 U/ml purine nucleoside phosphorylase (Sigma N8264) and 1 mM glyphosate. Absorbance was monitored at 4 sec intervals for 50 sec with a Spectramax plate reader (Molecular Devices). […] Division by the enzyme concentration (0.04 to 0.1 uM, depending on activity) yields “kcat gly” in units of min^−1.
Combinatorial shuffling, maize native EPSPS—The mutations discovered were used to construct a combinatorial library designed to explore combinations of the desensitizing mutations in novel sequence contexts provided by the newly identified neutral mutations. Note that the amino acid position numbering in this Example 10 refers to the relative position of native maize EPSPS without the N-terminal Met. Therefore, G101A in this Example would be G102A in reference to SEQ ID NO: 1, wherein the maize EPSPS sequence has a Met added at the N-terminal. The diversity used was the same with the addition of G101A, T102 (IALGV) and P106(WA). In all, 43 substitutions at 29 positions were selected. The library was synthesized entirely from oligonucleotides, using the known technique of synthetic shuffling and was termed NatFS (Native, fully synthetic). The vector DNA of the library was transformed into the BL21(DE3) Tuner-AroA knockout strain and the cells were plated onto M9 medium containing either 30 mM glyphosate and 30 μM of the lac operon inducer isopropyl β-D-1-thiogalactopyranoside (IPTG) or 50 mM glyphosate and no IPTG. The 184 colonies that grew on either plate were picked and subjected to a second tier of screening in which EPSPS proteins were purified and activity measured at high (200 μM) and low (50 μM) PEP and S3P, with or without 10 μM glyphosate. Selected variants were subjected to substrate saturation kinetic analysis.

B1: CP4 EPSPS: Class II EPSPS from Agrobacterium sp. strain CP4 (protein, UniProt Q9R4E4 1-455, looked up)
3-phosphoshikimate …: MSHGASSRPATARKSSGLSGTVRIPGDKSISHRSFMFGGLASGETRITGLLEGEDVINTGKAMQAMGARIRKEGDTWIIDGVGNGGLLAPEAPLDFGNAATGCRLTMGLVGVYDFDSTFIGDASLTKRPMGRVLNPLREMGVQVKSEDGDRLPVTLRGPKTPTPITYRVPMASAQVKSAVLLAGLNTPGITTVIEPIMTRDHTEKMLQGFGANLTVETDADGVRTIRLEGRGKLTGQVIDVPGDPSSTAFPLVAALLVPGSDVTILNVLMNPTRTGLILTLQEMGADIEVINPRLAGGEDVADLRVRSSTLKGVTVPEDRAPSMIDEYPILAVAAAFAEGATVMNGLEELRVKESDRLSAVANGLKLNGVDCDEGETSLVVRGRPDGKGLGNASGAAVATHLDHRIAMSFLVMGLVSENPVTVDDATMIATSFPEFMDLMAGLGAKIELSDTKAA
B1 gave a kgly [1] of 176 ± 1.6 min⁻¹, a kcat ([2]; CP4 EPSPS) of 6.85 ± 0.083 s⁻¹ and a Ki ([2]; Ki for glyphosate) of 1970 ± 276 µM. The Km ([2]; apparent Km, PEP present at 10 times its Km, read-out: Km S3P) was 5.2 ± 0.5 µM, the Km ([2]; apparent Km, S3P present at 10 times its Km, read-out: Km PEP) was 15.5 ± 0.4 µM and the “kcat/Km*Ki” value ([2]; calculated with Km for PEP) was 52240. For the same molecule, the Km ([2]; read-out: Km for PEP) was 15.5 µM.
